Data on 3 molecules can be found in US20220289795, “EFFICIENT METHOD FOR PREPARING PPR PROTEIN AND USE OF THE SAME” (EditForce, Inc., published 2022).

Where a chain is given by its changes, count along the chain named.

Experiment in all cases: ELONA; RPB-ELISA
For one series, the target named is T1, NL_v2_PPR14 (Artificial Sequence).
T1 chain: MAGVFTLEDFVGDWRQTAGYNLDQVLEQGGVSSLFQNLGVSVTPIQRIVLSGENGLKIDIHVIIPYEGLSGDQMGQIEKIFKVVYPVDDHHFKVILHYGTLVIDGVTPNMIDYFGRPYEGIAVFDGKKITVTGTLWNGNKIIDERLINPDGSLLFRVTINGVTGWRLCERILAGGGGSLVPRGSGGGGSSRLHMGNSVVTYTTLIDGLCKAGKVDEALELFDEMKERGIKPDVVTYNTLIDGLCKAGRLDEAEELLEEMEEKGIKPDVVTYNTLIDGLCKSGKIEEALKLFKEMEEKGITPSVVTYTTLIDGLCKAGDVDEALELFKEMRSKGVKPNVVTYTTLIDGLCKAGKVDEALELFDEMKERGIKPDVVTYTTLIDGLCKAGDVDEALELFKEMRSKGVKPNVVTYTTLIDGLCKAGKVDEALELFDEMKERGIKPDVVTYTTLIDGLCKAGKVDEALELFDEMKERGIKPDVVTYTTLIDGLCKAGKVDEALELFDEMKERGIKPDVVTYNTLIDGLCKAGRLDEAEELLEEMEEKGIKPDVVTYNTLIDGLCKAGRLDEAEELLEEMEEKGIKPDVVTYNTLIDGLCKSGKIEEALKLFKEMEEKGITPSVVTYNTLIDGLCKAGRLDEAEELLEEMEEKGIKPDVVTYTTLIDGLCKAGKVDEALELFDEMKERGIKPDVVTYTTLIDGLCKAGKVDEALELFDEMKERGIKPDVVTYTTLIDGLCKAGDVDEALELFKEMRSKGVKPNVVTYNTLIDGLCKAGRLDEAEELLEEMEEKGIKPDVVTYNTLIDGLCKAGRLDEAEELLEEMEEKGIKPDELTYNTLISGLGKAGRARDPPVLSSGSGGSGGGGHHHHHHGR
Conditions: tags: N-term luciferase, C-term 6xHis; label: 5'-biotin.

For the next series, the target named is T2, v3.1_PPR14 (Artificial Sequence).
T2 chain: T1 chain with D318K, D388K, D738K
Conditions: tags: luciferase fusion; label: 5'-biotin.

The next series addresses T3, v3.1_PPR13 (Artificial Sequence).
T3 chain: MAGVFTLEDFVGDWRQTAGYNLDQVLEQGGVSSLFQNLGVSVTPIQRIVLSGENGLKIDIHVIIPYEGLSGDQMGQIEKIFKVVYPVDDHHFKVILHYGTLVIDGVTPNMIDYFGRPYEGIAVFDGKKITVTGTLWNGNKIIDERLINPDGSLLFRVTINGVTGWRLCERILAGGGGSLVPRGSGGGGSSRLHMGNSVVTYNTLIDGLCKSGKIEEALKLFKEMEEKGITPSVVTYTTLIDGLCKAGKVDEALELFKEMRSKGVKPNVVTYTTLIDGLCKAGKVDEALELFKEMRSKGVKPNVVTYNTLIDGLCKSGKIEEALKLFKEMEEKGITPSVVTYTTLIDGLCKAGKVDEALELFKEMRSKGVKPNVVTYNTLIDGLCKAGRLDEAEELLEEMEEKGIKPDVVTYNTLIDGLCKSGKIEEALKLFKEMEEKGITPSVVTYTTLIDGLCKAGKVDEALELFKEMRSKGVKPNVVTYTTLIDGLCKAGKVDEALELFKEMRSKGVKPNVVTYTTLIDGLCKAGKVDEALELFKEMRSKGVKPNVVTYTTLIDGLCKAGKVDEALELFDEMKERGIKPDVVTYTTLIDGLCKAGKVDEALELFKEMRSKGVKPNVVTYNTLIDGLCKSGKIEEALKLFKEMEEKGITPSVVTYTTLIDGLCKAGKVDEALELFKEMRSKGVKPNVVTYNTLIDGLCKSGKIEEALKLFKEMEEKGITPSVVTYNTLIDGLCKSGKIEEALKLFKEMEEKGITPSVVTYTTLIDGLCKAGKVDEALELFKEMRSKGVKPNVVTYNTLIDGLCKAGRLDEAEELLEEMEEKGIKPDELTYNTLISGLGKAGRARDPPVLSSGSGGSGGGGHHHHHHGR
Conditions: tags: luciferase fusion; label: 5'-biotin.

A further series deals with T4, NL_v2_PPR13 (Artificial Sequence).
T4 chain: T3 chain with K248D, K283D, K353D, K458D, K493D, K528D, K598D, K668D, K773D
Conditions: tags: N-term luciferase, C-term 6xHis; label: 5'-biotin.

Another series deals with T5, v3.1_PPR15 (Artificial Sequence).
T5 chain: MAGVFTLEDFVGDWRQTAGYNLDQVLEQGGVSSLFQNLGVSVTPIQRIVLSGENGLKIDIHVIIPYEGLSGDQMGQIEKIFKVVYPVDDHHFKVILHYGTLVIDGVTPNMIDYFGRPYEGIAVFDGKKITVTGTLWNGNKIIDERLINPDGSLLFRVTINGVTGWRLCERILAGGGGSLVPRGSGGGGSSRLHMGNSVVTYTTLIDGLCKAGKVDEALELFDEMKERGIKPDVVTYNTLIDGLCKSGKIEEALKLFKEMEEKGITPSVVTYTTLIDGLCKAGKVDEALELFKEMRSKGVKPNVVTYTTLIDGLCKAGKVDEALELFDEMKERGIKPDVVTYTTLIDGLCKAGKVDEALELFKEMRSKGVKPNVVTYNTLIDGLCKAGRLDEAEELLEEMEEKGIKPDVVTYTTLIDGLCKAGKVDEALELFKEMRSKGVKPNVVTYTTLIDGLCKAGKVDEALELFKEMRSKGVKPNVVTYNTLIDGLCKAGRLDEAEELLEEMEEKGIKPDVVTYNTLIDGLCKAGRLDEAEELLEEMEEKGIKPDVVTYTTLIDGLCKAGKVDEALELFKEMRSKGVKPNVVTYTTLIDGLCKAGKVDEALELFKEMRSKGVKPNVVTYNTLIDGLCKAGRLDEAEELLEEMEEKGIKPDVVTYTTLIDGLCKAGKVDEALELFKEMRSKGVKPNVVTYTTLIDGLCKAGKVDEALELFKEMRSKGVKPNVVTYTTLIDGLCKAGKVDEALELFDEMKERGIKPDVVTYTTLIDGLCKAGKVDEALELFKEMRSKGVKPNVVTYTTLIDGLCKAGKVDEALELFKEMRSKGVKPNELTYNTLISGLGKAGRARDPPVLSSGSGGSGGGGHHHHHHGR
Conditions: tags: luciferase fusion; label: 5'-biotin.

In another series the target is T6, NL_v2_PPR15 (Artificial Sequence).
T6 chain: T5 chain with K283D, K353D, K423D, K458D, K563D, K598D, K668D, K703D, K773D, K808D
Conditions: tags: N-term luciferase, C-term 6xHis; label: 5'-biotin.

In the case of GACAUGCGUCAGAGGGUUCUGGAUUGACUG (ssRNA) [RNA_14], the binding signal with NL_v2_PPR14 and with v3.1_PPR14 was 2.5e+07 luminescence in each case.

GACAUGCCAACAUCAAAGACACCAUGACUG (ssRNA) [RNA_13]: the binding signal with v3.1_PPR13 is 4e+07 luminescence; in the series with NL_v2_PPR13, 2.3e+06 luminescence.

As to GACAUGCGCAGAUAAUUAAUAAGAAGACUG (ssRNA) [RNA_15], the binding signal with v3.1_PPR15 stood at 3.2e+07 luminescence; in the series with NL_v2_PPR15 it was 1.3e+07 luminescence.
